Our source for the self-cleavage values is the RNAGym collection of RNA variant scans (doi:10.7554/elife.90254).

To fix the notation:
B1: OR4K15 (parent)
chain: GUUAACGGUCAUAGGCCAUGGAAACUAGGAGCACCAUUUCGCUGCCAGUGAAGAAAUGAACAAAGAAAAUCUGGGCCAGGCAGGCAUCAAAAGAAAUAGUCUUGCGCUCAACCAGAAAGUCUGUAAUCAUUUUAAGGGUA

This data set covers variants of B1. Description: self-cleavage, relative activity (ratio to wild type); higher = more cleavage; in vitro, sequencing; the parent is a self-cleaving ribozyme.
As for GUUAACGGUCAUACGCCAUGGAAACUAGGAGCACCAUUUCGCUGCCAGUGAAGAAAUGAACAAAGAAAAUCUGGGCCAGGCAGGCAUCAAAAGAAAUAGUCUUGCGCUCAACCAGAAAGUCUGUAAUCAUUUUAAGGGUA [G14C], the self-cleavage came out at 1.4. GUUAACGGUCAUAAGCCAUGGAAACUAGGAGCACCAUUUCGCUGCCAGUGAAGAAAUGAACAAAGAAAAUCUGGGCCAGGCAGGCAUCAAAAGAAAUAGUCUUGCGCUCAACCAGAAAGUCUGUAAUCAUUUUAAGGGUG [G14A A140G]: the self-cleavage was 1.89. Then GUUAACGGUCAUAAGCCAUAGAAACUAGGAGCACCAUUUCGCUGCCAGUGAAGAAAUGAACAAAGAAAAUCUGGGCCAGGCAGGCAUCAAAAGAAAUAGUCUUGCGCUCAACCAGAAAGUCUGUAAUCAUUUUAAGGGUA [G14A G20A], with 1.49; and GUUAACGGUCAUAAGCCAUGGAAACUAGGAGCACCAUUUAGCUGCCAGUGAAGAAAUGAACAAAGAAAAUCUGGGCCAGGCAGGCAUCAAAAGAAAUAGUCUUGCGCUCAACCAGAAAGUCUGUAAUCAUUUUAAGGGUA [G14A C40A], with 1.54; and GUUAACGGUCAUAAGCCAAGGAAACUAGGAGCACCAUUUCGCUGCCAGUGAAGAAAUGAACAAAGAAAAUCUGGGCCAGGCAGGCAUCAAAAGAAAUAGUCUUGCGCUCAACCAGAAAGUCUGUAAUCAUUUUAAGGGUA [G14A U19A], with 0.91. For GUUAACGGUCAUACGCCAUGGAAACUAGGAGCACCAUUUCGCUGCCAGUGAAGAAAUGAACAAAGAAAAUCUGGGCCAGGCAGGCAUCAAAAGAAAUAGUCUUGCGCUCAACCAGAAAGUCUGUAAUCAUUCUAAGGGUA [G14C U132C] the value was 1.04; for GUUAACGGUCAUAAGCCAUGGAAACUAGGAGCACCAUUUCGCUGCCAGUGAAGAAAUGAACAAGGAAAAUCUGGGCCAGGCAGGCAUCAAAAGAAAUAGUCUUGCGCUCAACCAGAAAGUCUGUAAUCAUUUUAAGGGUA [G14A A64G], 1.06; for GUUAACGGUCAUAAGCCAUGGAAACUAGGAGCACCAUUUCGCUGCCAGUGAAGAAAUGAACAAAGAAAGUCUGGGCCAGGCAGGCAUCAAAAGAAAUAGUCUUGCGCUCAACCAGAAAGUCUGUAAUCAUUUUAAGGGUA [G14A A69G], 1.03. For GUUAACGGUCAUAAGCCAUGGAAACUAGGAGCACCAUUUCGCUGCCAGUGAAGAAAUGAACAAAGAAAAUCUGGGCCAGGCAGGCAUCAAAAGAAAUAGUCUUGCGCUCGACCAGAAAGUCUGUAAUCAUUUUAAGGGUA [G14A A110G] the value was 0.13. In the case of GUUAACGGUCAUAAGCCAUGGAAACUAGGAGCACCAUUUCGCUGCCAGUGAAGAAAUGAACAUAGAAAAUCUGGGCCAGGCAGGCAUCAAAAGAAAUAGUCUUGCGCUCAACCAGAAAGUCUGUAAUCAUUUUAAGGGUA [G14A A63U], the self-cleavage was 1.23. For GUUAACGGUCAUAAGCCAUGGAAACUAGGAGCACCAUUUCGCUGCCAGUGAAGAAAUGAACAAAGAAAAUCUGGGCCUGGCAGGCAUCAAAAGAAAUAGUCUUGCGCUCAACCAGAAAGUCUGUAAUCAUUUUAAGGGUA [G14A A78U] the value was 0.22. For the variant GUUAACGGUCAUAAGCCAUGGAAACUAGGAGCACCAUUUCGCUGCCAGUGAAGAAAUGAACAAAGAAAAUCUGGGCCAGGCAGGCAUCAAAAGAAAUAGUCUUGCGCUCAGCCAGAAAGUCUGUAAUCAUUUUAAGGGUA [G14A A111G], the self-cleavage stood at 0.01.

Take GUUAACGGUCAUAAGCCAUGGAAACUAGGAGCACCAUUUCGCUGCCAGUGAAGAAAUGAACAAAGAAAAUCUGGGCCAGGCAGGCGUCAAAAGAAAUAGUCUUGCGCUCAACCAGAAAGUCUGUAAUCAUUUUAAGGGUA [G14A A86G]: the self-cleavage worked out at 1.02. With GUUAACGGUCAUAAGCCAUGGAAACUAGGAGCACCAUUUCGCUGCCAGUGAAGAAAUGAACAAAGAAAAUUUGGGCCAGGCAGGCAUCAAAAGAAAUAGUCUUGCGCUCAACCAGAAAGUCUGUAAUCAUUUUAAGGGUA [G14A C71U], the self-cleavage was 0.37. GUUAACGGUCAUACGCCAUGGAAACUAGGAGCACCAUUUCGCUGCCAGUGAAGAAAUGAACAAAGAAAAUCUGGGCCAGGCAGGCAUCAAAAGAAAUAGUCUUGCGCUCAACCAGAAGGUCUGUAAUCAUUUUAAGGGUA [G14C A118G]: the self-cleavage was 0.43. For GUUAACGGUCAUAAGCCAUGGAAACUAGGAGCACCAUUUCGCUGCCAGUGAAGAAAUGAACAAAGAAAAUCUGGGCCAGGCAGGCAUCAAAAGAAAUAGUCUUGCGCUCAACCAGAAAGUCUGUAAUCAUUUUUAGGGUA [G14A A134U] the value was 0.5. Take GUUAACGGUCAUACGCCAUGGAAACUAGGAGCACCAUUUCGCUGCCAGUGAAGAAAUGAACAAAGAAAAUCUGGGCCAGGCAGGCAUCAAAAGAAAUAGUCUUGCGCUCAACCAGAAAGUCUGUAACCAUUUUAAGGGUA [G14C U127C]: the self-cleavage is 1.15. For GUUAACGGUCAUAAGCCAUGGAAACUAGGAGCACCAUUUCGCUGCCAGUGAAGAAAUGAACAAAGAAAAUCUGGGCCAGGCAGGCAUCAAAAGAAAUAGUCUUGCGCUCAACCAGAAAGUCUGCAAUCAUUUUAAGGGUA [G14A U124C] the value was 0.47. Then GUUAACGGUCAUAAGCCAUGGAAACUAGGAGCACCAUUUCGCUGCCAGUGAAGAAAUGAACAAAGGAAAUCUGGGCCAGGCAGGCAUCAAAAGAAAUAGUCUUGCGCUCAACCAGAAAGUCUGUAAUCAUUUUAAGGGUA [G14A A66G], with 0.8. On to GUUAACGGUCAUAAGCCAUGGAAACUAGGAGCACCAUUUCGCUGCCAGUGAAGAAAUGAACAAAGAAAAUCUGGGCCAGGCAGGCAUCACAAGAAAUAGUCUUGCGCUCAACCAGAAAGUCUGUAAUCAUUUUAAGGGUA [G14A A90C], for which the self-cleavage was found to be 0.98.

As for GUUAACGGUCAUACGCCAUGGAAACUAGGAGCACCAUUUCGCUGCCAGUGAAGAAAUGAACAAAGAAAAUCUGGGCCAGGCAGGCAUCGAAAGAAAUAGUCUUGCGCUCAACCAGAAAGUCUGUAAUCAUUUUAAGGGUA [G14C A89G], the self-cleavage was determined as 2.26.
